# Data as given in patent US20210188980A1 (SHANGHAI EPIMAB BIOTHERAPEUTICS, published 2021).
# Substitutions are numbered along the chain they refer to.
# B1: HumAb709-7 (antibody, human IgG1, kappa, L234A L235A, V domains shown)
# VH: EVQLVESGGGLVQPGGSLRLSCAASGFTFSFYTMSWVRQAPGKGLEWVATISGGGRDTYYPDSVKGRFTISRDNAKNSLYLQMNSLRAEDTAVYYCARQGGNYLFAYWGQGTLVTVSS
# VL: DIVMTQSPSSLSASVGDRVTITCKASQDVNTVVAWYQQKPGKAPKVLISWASTRHTGVPSRFSGSGSGTDYTLTISSLQPEDFATYYCQQHYTTPYTFGGGTKVEIKR
# notes: humanized mAb709
# B2: HumAb709-8 (antibody, human IgG1, kappa, L234A L235A, V domains shown)
# VH: B1 VH with R98G
# VL: B1 VL
# notes: humanized mAb709; also called HurnAb709-8
# B3: HumAb709-10 (antibody, human IgG1, kappa, L234A L235A, V domains shown)
# VH: B1 VH
# VL: B1 VL with S63T
# notes: humanized mAb709
# B4: HumAb709-2 (antibody, human IgG1, kappa, L234A L235A, V domains shown)
# VH: B1 VH with R98G
# VL: B1 VL with V3Q, V46L, S49Y
# notes: humanized mAb709
# B5: HumAb709-1 (antibody, human IgG1, kappa, L234A L235A, V domains shown)
# VH: B1 VH
# VL: B1 VL with V3Q, V46L, S49Y
# notes: humanized mAb709
# B6: HumAb709-5 (antibody, human IgG1, kappa, L234A L235A, V domains shown)
# VH: B1 VH with R98G
# VL: B1 VL with V3Q, V46L
# notes: humanized mAb709
# B7: HumAb709-12 (antibody, human IgG1, kappa, L234A L235A, V domains shown)
# VH: B1 VH with G44R, R98G
# VL: B1 VL with S63T
# notes: humanized mAb709; also called HuntAb709-12
# B8: HumAb709-3 (antibody, human IgG1, kappa, L234A L235A, V domains shown)
# VH: B1 VH with G44R, R98G
# VL: B1 VL with V3Q, V46L, S49Y
# notes: humanized mAb709
# B9: HumAb709-15 (antibody, human IgG1, kappa, L234A L235A, V domains shown)
# VH: B1 VH with G44R, R98G
# VL: B1 VL with A43S, P44L, S63T
# notes: humanized mAb709
# B10: HumAb709-13 (antibody, human IgG1, kappa, L234A L235A, V domains shown)
# VH: B1 VH
# VL: B1 VL with A43S, P44L, S63T
# notes: humanized mAb709
# B11: HumAb709-6 (antibody, human IgG1, kappa, L234A L235A, V domains shown)
# VH: B1 VH with G44R, R98G
# VL: B1 VL with V3Q, V46L
# notes: humanized mAb709
# B12: HumAb709-9 (antibody, human IgG1, kappa, L234A L235A, V domains shown)
# VH: B1 VH with G44R, R98G
# VL: B1 VL
# notes: humanized mAb709
# B13: HumAb709-11 (antibody, human IgG1, kappa, L234A L235A, V domains shown)
# VH: B1 VH with R98G
# VL: B1 VL with S63T
# notes: humanized mAb709
# B14: HumAb709-14 (antibody, human IgG1, kappa, L234A L235A, V domains shown)
# VH: B1 VH with R98G
# VL: B1 VL with A43S, P44L, S63T
# notes: humanized mAb709
# B15: HumAb709-4 (antibody, human IgG1, kappa, L234A L235A, V domains shown)
# VH: B1 VH
# VL: B1 VL with V3Q, V46L
# notes: humanized mAb709
# B16: HumAb713-3 (antibody, human IgG1, kappa, L234A L235A, V domains shown)
# VH: EVQLVESGGGLVQPGGSLRLSCAASGFTSSDYGMHWVRQAPGKGLEWVSYISSGSYTIYYADTVKGRFTISRDNAKNSLYLQMNSLRDEDTAVYYCAKRGGSSHVNVMDYWGQGTTVTVSS
# VL: DIQMTQSPSSLSASVGDRVTITCKASDHINNWLAWYQQKPGKAPKLLIYGATSLETGVPSRFSGSGSGTDFTFTISSLQPEDIATYYCQQYWSPPYTFGGGTKVEIKR
# notes: humanized mAb713; also called HurnAb713-3
# B17: HumAb713-13 (antibody, human IgG1, kappa, L234A L235A, V domains shown)
# VH: B16 VH with S29F, K98R
# VL: B16 VL with Y49S, T69K, F71Y
# notes: humanized mAb713
# B18: HumAb713-16 (antibody, human IgG1, kappa, L234A L235A, V domains shown)
# VH: B16 VH with S49A
# VL: B16 VL with Y49S, T69K, F71Y
# notes: humanized mAb713
# B19: HumAb713-12 (antibody, human IgG1, kappa, L234A L235A, V domains shown)
# VH: B16 VH with S49A
# VL: B16 VL with Y49S, F71Y
# notes: humanized mAb713
# B20: HumAb713-9 (antibody, human IgG1, kappa, L234A L235A, V domains shown)
# VH: B16 VH with S29F, K98R
# VL: B16 VL with Y49S, F71Y
# notes: humanized mAb713
# B21: HumAb713-15 (antibody, human IgG1, kappa, L234A L235A, V domains shown)
# VH: B16 VH
# VL: B16 VL with Y49S, T69K, F71Y
# notes: humanized mAb713
# B22: HumAb713-10 (antibody, human IgG1, kappa, L234A L235A, V domains shown)
# VH: B16 VH with S29F
# VL: B16 VL with Y49S, F71Y
# notes: humanized mAb713
# B23: HumAb713-1 (antibody, human IgG1, kappa, L234A L235A, V domains shown)
# VH: B16 VH with S29F, K98R
# VL: B16 VL
# notes: humanized mAb713
# B24: HumAb713-11 (antibody, human IgG1, kappa, L234A L235A, V domains shown)
# VH: B16 VH
# VL: B16 VL with Y49S, F71Y
# notes: humanized mAb713
# B25: HumAb713-14 (antibody, human IgG1, kappa, L234A L235A, V domains shown)
# VH: B16 VH with S29F
# VL: B16 VL with Y49S, T69K, F71Y
# notes: humanized mAb713
# Target: T1, human PD-1-His protein (human, UniProt Q15116 25-167, limits assumed)
# T1 construct: also called huPD-1; not shown: His tag
# Assay: SPR Biacore, Ab captured, huPD-1-His analyte
# Protocol: (§1) All 15 humanized antibodies and the chimeric antibody (mAb709c) were characterized by binding ELISA and cell-based RBA. For cell-based RBA, 2×10⁵ cells/well of CHO-K1-huPD1 cells were added to a pre-blocked 96-well round-bottomed plate and after washing, 50 μl antibodies with diluted concentration ranging from 0.064 nM to 200 nM were added to each well. Next, 50 μl of 60 μg/ml biotinylated PD-L1/Fc or biotinylated PD-L2/Fc protein were added. After gentle mixing and incubation at 4° C., the cells were washed and stained by Alexa Fluor™ 488 streptavidin solution (1:1000, ThermoFisher Scientific; Cat. No. S32354). Signals were readout by FACS and curves were fitted by GraphPad software. […] The association and dissociation rate constants, k (M⁻¹ s⁻¹) and koff(s⁻¹), respectively, were determined by making kinetic binding measurements at five different concentrations of human PD-1-His protein at a continuous flow rate of 30 μl/min. The equilibrium dissociation constant KD (M) of the reaction between antibodies and related target proteins was calculated from the kinetic rate constants using the formula KD=koff/kₒₙ. HumAb709-8 had minimal back-mutation(s) while maintaining to the greatest extent the affinity of the parental variable domains on chimeric mAb709c.
# T1 sequence (Q15116 25-167 limits assumed): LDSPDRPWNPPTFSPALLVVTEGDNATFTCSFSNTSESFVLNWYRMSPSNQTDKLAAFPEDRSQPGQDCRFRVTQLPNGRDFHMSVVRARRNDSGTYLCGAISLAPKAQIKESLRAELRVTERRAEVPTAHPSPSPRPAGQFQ
Binder,Kd,koff,kon
B1,2.36 nM,0.000336 s⁻¹,141000 M⁻¹ s⁻¹
B2,0.368 nM,4.69e-05 s⁻¹,127000 M⁻¹ s⁻¹
B3,2.04 nM,0.000297 s⁻¹,146000 M⁻¹ s⁻¹
B4,0.684 nM,5.5e-05 s⁻¹,80300 M⁻¹ s⁻¹
B5,11 nM,0.00215 s⁻¹,195000 M⁻¹ s⁻¹

# Target: T2, human PD-1 expressed on cells (human, UniProt Q15116 25-288)
# T2 construct: whole, on cells; also called CHO-K1/huPD-1; CHO-K1-hPD-1 cells
# Assay: cell RBA FACS, CHO-K1-huPD1; competitor biotin-PD-L2/Fc
# Protocol: as §1
# T2 sequence (Q15116 25-288): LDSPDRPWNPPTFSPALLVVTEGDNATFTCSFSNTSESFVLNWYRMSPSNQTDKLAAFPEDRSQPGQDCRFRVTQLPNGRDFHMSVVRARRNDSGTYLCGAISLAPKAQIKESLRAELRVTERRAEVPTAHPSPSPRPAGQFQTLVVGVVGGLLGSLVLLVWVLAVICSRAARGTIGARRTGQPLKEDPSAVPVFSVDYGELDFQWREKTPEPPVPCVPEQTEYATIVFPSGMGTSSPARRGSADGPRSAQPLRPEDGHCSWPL
row,Binder,IC50
1,B1,0.84 nM
2,B2,1 nM
3,B6,0.97 nM
4,B7,1.35 nM
5,B8,1.64 nM
6,B3,0.8 nM
7,B9,1.21 nM
8,B10,0.78 nM
9,B11,1.26 nM
10,B4,0.99 nM
11,B12,1.76 nM
12,B13,0.92 nM
13,B14,0.92 nM
14,B15,1.68 nM
15,B5,1.64 nM

# Target: T2, human PD-1 expressed on cells
# Assay: cell RBA FACS; competitor PD-L2/Fc
row,Binder,IC50
1,B16,1.24 nM
2,B17,2.13 nM
3,B18,1.63 nM
4,B19,1.59 nM
5,B20,2 nM
6,B21,1.65 nM
7,B22,1.23 nM
8,B23,1.2 nM
9,B24,0.97 nM
10,B25,1.45 nM

# Target: T2, human PD-1 expressed on cells
# Assay: cell RBA FACS; competitor PD-L1/Fc
row,Binder,IC50
1,B16,0.77 nM
2,B17,0.7 nM
3,B18,0.65 nM
4,B19,0.94 nM
5,B20,1.2 nM
6,B21,0.88 nM
7,B22,0.8 nM
8,B23,0.5 nM
9,B24,0.51 nM
10,B25,0.91 nM

# Target: T2, human PD-1 expressed on cells
# Assay: cell RBA FACS, CHO-K1-huPD1; competitor biotin-PD-L1/Fc
# Protocol: as §1
row,Binder,IC50
1,B1,0.4 nM
2,B2,0.44 nM
3,B6,0.67 nM
4,B7,0.45 nM
5,B8,1.25 nM
6,B3,0.29 nM
7,B9,0.9 nM
8,B10,0.5 nM
9,B11,1.23 nM
10,B4,0.47 nM
11,B12,1.04 nM
12,B13,0.55 nM
13,B14,0.51 nM
14,B15,0.78 nM
15,B5,1.02 nM

# Target: T1, human PD-1-His protein
# Assay: SPR Biacore
Binder,Kd,koff,kon
B16,2.46 nM,0.000208 s⁻¹,84500 M⁻¹ s⁻¹
B23,11.1 nM,0.001 s⁻¹,90100 M⁻¹ s⁻¹
B24,2.37 nM,0.000378 s⁻¹,159000 M⁻¹ s⁻¹
